Experimental data reported in article PMC8530329 (2021).

What was measured:
[1] = molecular target: T1, SARS-CoV-2 RBD-Flag-His protein (SARS-CoV-2, UniProt P0DTC2 319-541); test: BLI
[2] = molecular target: T1, SARS-CoV-2 RBD-Flag-His protein; test: BLI; remark: listed apart in the source

B1: RBD-chAb-45 (antibody, V domains shown)
VH: EVQLQQSGPELVKPGASVKISCKTSGYTFTEYTIYWVKQSLGKSLEWIGGNNPNNDDTTYKQFFKGKATLTVDKSSSTAYMELRSLTSEDSAVYYCARDGYPYYYALDFWGQGTSVTVSS
VL: DIVMTQSQKFMSTSVGDRVSVTCKSSQNVGTNVAWYQQKPGQSPKALIYSASYRYSGVPDHFTGSGSGTDFTLTISNVQSADLAEYFCQQYNNYPWTFGGGTKLEIK
koff [1]: 0.000282 s⁻¹
Kd [2]: 0.282 nM
